We go through five molecules from patent publication US20240228660A1 (IP2IPO INNOVATIONS, published 2024).

As usually defined, the Kd is a measure of binding affinity in units of concentration. A higher Kd goes with a looser complex. Usually EC50 (read off the curve) stands for the concentration at which the effect is half-maximal.

Assay [1] concerns the target T1, human full-length VWF (human, UniProt P04275 764-2813). Put plainly: SPR, Biacore T200, antibody captured on Protein A, full-length VWF as analyte, single-cycle kinetics. For orientation: Surface plasmon resonance follows binding to a sensor surface in real time, without labels.
Method: (§1) Antibodies were captured on Protein A sensor chip. The system was purged using running buffer (10 mM HEPES pH 7.4, 300 mM NaCl, 3 mM EDTA, 0.05% P20) and a series S Protein A chip was docked in the Biacore T200. The surface was conditioned with 10 mM glycine-HCl pH 1.5 regeneration solution (3 injections). Each antibody was diluted to ˜0.8 μg/ml in running buffer to capture ˜350 RU on flow cells 2, 3 and 4 (flow cell 1 used as in-line reference cell). Single-cycle kinetic analysis of human full-length VWF binding to antibodies was performed using the following parameters:
The target in assay [2] is T2, human native VWF (human, UniProt P04275 764-2813).
T2 construct: Multimeric glycoprotein; also called native VWF protein; native VWF (305 kDa)
The assay can be described thus: SPR, Biacore 8K, antibody captured on Protein A, native VWF as analyte (4.4-50 nM), single-cycle kinetics, 1:1 fit; replicate 2.
Method: (§2) The surface plasmon resonance (SPR) experiments were performed using a Biacore 8K (Cytiva) equipped with a research grade Protein A series S sensor chip. […] Flow cell 1 was left blank to serve as a reference surface. […] The complex was allowed to associate and dissociate for 120 seconds and 7200 seconds respectively. The surfaces were regenerated with 30 see injections of 10 mM glycine-HCl pH1.5.
(§3) Data were collected at a rate of 10 Hz. The data were fit to a simple 1:1 interaction model using the global data analysis option available within the Biacore Insight Evaluation software version 3.0.12.15655.

The target in assay [3] is T2, human native VWF. The assay can be described thus: SPR, Biacore 8K, antibody captured on Protein A, native VWF as analyte (4.4-50 nM), single-cycle kinetics, 1:1 fit; replicate 3.
Method: as §2, §3
Assay [4] deals with T2, human native VWF. Put plainly: SPR, Biacore 8K, antibody captured on Protein A, native VWF as analyte (4.4-50 nM), single-cycle kinetics, 1:1 fit; replicate 1.
Method: as §2, §3
Assay [5] addresses T2, human native VWF. The assay can be described thus: ELISA, native VWF coated at 20 ng/well, semi-log dilution of the mAb from 10 µg/ml, anti-human IgG-HRP/TMB. Background: ELISA stands for enzyme-linked immunosorbent assay.
Method: (§4) Purified monoclonal antibodies originally derived from scFvs selected from rabbit immune library were tested for binding towards C1-C6-Fc, VWFAD4-C6, BSA (100 ng/well) and human native VWF (Imperial College, 20 ng/well). […] Protein targets were immobilized overnight on ELISA plates, blocked and incubated with a semi-log dilution series of purified recombinant monoclonal antibodies (starting concentration 10 μg/ml), averages of duplicate values are shown. Antibody binding towards human native VWF, VWFAD4-C6 and BSA were detected with antihuman IgG-HRP or anti-human IgG-HRP and TMB staining. ELISA reactivities towards C1-C6-Fc were performed in a separate ELISA experiment and were detected with anti-human IgGκ-HRP and TMB staining.
Assay [6] concerns the target T1, human full-length VWF. Put plainly: SPR, Biacore T200, antibody captured on Protein A, full-length VWF as analyte, single-cycle kinetics. This is another data set of the same source.
Method: as §1
The target of assay [7] is T1, human full-length VWF. The description is as above. This is another data set of the same source.
Method: as §1
For assay [8], the target named is T2, human native VWF. Put plainly: ELISA, native VWF coated at 20 ng/well, semi-log dilution of the mAb from 10 µg/ml, anti-human IgG-HRP/TMB. This is another data set of the same source.
Method: as §4

Where a chain is given by its changes, count along the chain named. Where two headings read alike, the source gives them in different places.

B1: 3-H9 (antibody, human IgG1, V domains shown)
VH: QSLEESGGRLVTPGTPLTLTCSVSGFSLSNYDMSWVRQAPGKGLEWIGSIHAIGITYYANWAEGRFTISKTSTTVDLKMTSLTTEDTATYFCARGLVDLNMWGPGTLVTVSS
VL: AIKMTQTPSSVSVAVGGTVTINCQSSQSVYSNNLLSWYQQKPGQPPKLLIYDASTLESGVPSRFKGSGSGTQFTLTISGVQCEDAATYYCQGSYYSSGWYNTFGGGTEVVVE
notes: Rabbit-derived variable domains expressed as human IgG1; also called clone 3-H9; antibody 3-H9
On to B1, for which the Kd in the assay with human full-length VWF [1] stood at 0.0603 nM; in the assay with human native VWF [2], 0.084 nM; with human native VWF [3] it was 0.025 nM; with human native VWF [4], 0.0487 nM. Moreover, the “EC50 (read off the curve)” value in the assay with human native VWF [5] is around 8 ng/mL.

B2: 1-G5 (antibody, human IgG1, V domains shown)
VH: B1 VH with N30S, S34T, I53T, Y57F, E63K, I68T
VL: DPVMTQTASSVSAAVGGTVTINCQASQSVYNNNYLSWYQQKPGQPPKLLIYDASTLASGVPSRFSGNGSGTQFTLTISGVQCDDAATYYCQGSYYSGGWDTAFGGGTKVVVK
notes: Rabbit-derived variable domains expressed as human IgG1; also called clone 1-G5
As to B2, the Kd was 0.079 nM with human native VWF [2], 0.0253 nM in the assay with human full-length VWF [6], 0.123 nM in the assay with human native VWF [3] and 0.0549 nM with human native VWF [4].

B3: 1-A2 (antibody, human IgG1, V domains shown)
VH: QSVEESGGRLVPPGTPLTLTCTVSGIDLTSNAMNWVRQAPGKGLEWIGGIYGHDTSYYAAWAKGRFTISRTSTTVDLKMTRPTTDDTATYFCARGFIYFDIWGTGTLVTISS
VL: AIEMTQTPPSLSASVGETVRIRCLASEDIYSGISWYQQKPGKPPTLLIYGASNLESGVPPRFSGSGSGTDYTLTIGGVQAEDAATYYCLGGHSHSTTDLTFGAGTKVEIK
notes: Rabbit-derived variable domains cloned into a human IgG1 expression vector and expressed as monoclonal antibody; also called clone 1-A2; antibody 1-A2
Turning to B3, the Kd with human full-length VWF [7] is 0.00802 nM; with human native VWF [2], 0.527 nM; with human native VWF [4], 0.164 nM.

B4: 4-H3 (antibody, human IgG1, V domains shown)
VH: B3 VH with V3L
VL: B3 VL with I2Y, E3D, Y30A, H92Y, H94F, T96S, T97N, D98G
notes: Rabbit-derived variable domains expressed as human IgG1; also called clone 4-H3
As to B4, the dissociation constant (Kd) with human full-length VWF [7] came out at 0.0153 nM; with human native VWF [2], 0.154 nM; in the assay with human native VWF [4], 0.123 nM.

B5: 1-D5 (antibody, human IgG1, V domains shown)
VH: QQQLVESGGRLVTPGTPLTLTCAVSGFSLNNYIMGWVRQAPGKGLEYIGIISTGGSTYYASWAKGRFTISRTSTTMDLKMTSLTTEDTATYFCARGGSSAGAGFNIWGPGTLVTVSS
VL: DIVMTQTPSSVSAAVGDTVTIQCQASQSINSGLAWYQQKPGQPPKRLIYKASTLASGVPSRFRGSGSGTDFTLTISDLECADAATYYCQSYHYISANGATFGGGTEVVVE
notes: Rabbit-derived variable domains expressed as human IgG1; also called clone 1-D5; antibody 1-D5
On to B5, for which the figures for the Kd with human native VWF [2], with human native VWF [3] and in the assay with human native VWF [4] were 0.0381 nM, 0.0641 nM and 0.025 nM, respectively. In addition, in the assay with human native VWF [8], the “EC50 (read off the curve)” value is around 6 ng/mL.
